Where no end group is shown, it is not given here.
Target: T1, BSA conjugated CD28 stalk region dimeric peptide (also: dimer through the cysteine, BSA conjugated via C-terminal Lys by hydrazide chemistry)
T1 peptide: GKHLCPSPLFPGPSKPK
Assay: ELISA

B1: antibody M9 (antibody, V domains shown)
VH: DVKLVESGGGLVKLGGSLKLSCVASGFTFSSYYMSWVRQTPEKRLEWVATISDGGDNTYYAGTVTGRFTISRDFAKNTLYLQMNSLTSEDTAVYYCARIHWPYYFDSWGQGTTLTVSS
VL: QFVLSQSPAILSASPGEMLTMTCRASSSVSYMNWYQQKPGSSPKPWIYATSDLASGVPARFSGSGSGTSYSLTISRVEAEDAATYYCQQWSSHPPTFGGGTKLEIR
notes: Full-size mouse antibody raised in CD1 mice against the dimeric stalk peptide; detected with anti mouse IgG; also called clone M9; anti-cleavage antibody M9
With B1 the IC50 was 9 ng/mL.

From patent publication US20220169732A1 (BIOND BIOLOGICS, published 2022)
